The text below walks through data of patent publication US20220089698A1 (published 2022).

The target of one experiment is HIV gp120 Bal (HIV). Kind of experiment: single-point ELISA. (In general: In an ELISA, binding on a coated surface is turned into a signal by an enzyme label.)
A further experiment concerns the target HIV gp120 CAAN (HIV). Put plainly: single-point ELISA. Also: test concentration or dose not given here.

B1: 1.1.16-1 (antibody, human IgG1, kappa)
heavy: QVQLLQSGAAVTKPGASVRVSCEASGYNIRDYFIHWWRQAPGQGLQWVGWINPKTGQPNNPRQFQGRVSLTRHASWDFDTFSFYMDLKALRSDDTAVYFCARQRSDYWDFDVWGSGTQVTVSSASTKGPSVFPLAPSSKSTSGGTAALGCLVKDYFPEPVTVSWNSGALTSGVHTFPAVLQSSGLYSLSSVVTVPSSSLGTQTYICNVNHKPSNTKVDKKVEPKSCDKTHTCPPCPAPELLAGPDVFLFPPKPKDTLMISRTPEVTCVVVDVSHEDPEVKFNWYVDGVEVHNAKTKPREEQYNSTYRVVSVLTVLHQDWLNGKEYKCKVSNKALPLPEEKTISKAKGQPREPQVYTLPPSREEMTKNQVSLTCLVKGFYPSDIAVEWESNGQPENNYKTTPPVLDSDGSFFLYSKLTVDKSRWQQGNVFSCSVLHEALHSHYTQKSLSLSPGK
light: DIQMTQSPSSLSASVGDTVTITCQANGYLNWYQQRRGKAPKLLIYDGSKLERGVPSRFSGRRWGQEYNLTINNLQPEDIATYFCQVYEFVGPGTRLDLKRTVAAPSVFIFPPSDEQLKSGTASVVCLLNNFYPREAKVQWKVDNALQSGNSQESVTEQDSKDSTYSLSSTLTLSKADYEKHKVYACEVTHQGLSSPVTKSFNRGEC
As for B1, the “ELISA (A450)” value with HIV gp120 Bal turned out to be 1.06 A450; with HIV gp120 CAAN it was 0.99 A450.

B2: 1.1.17-1 (antibody, human IgG1, kappa)
heavy: QVQLLQSGAAVTKPGASVRVSCEASGYNIRDYFIHWWRQAPGQGLQWVGWINPKTGQPNNPRQFQGRVSLTRHASWDFDTFSFYMDLKALRSDDTAVYFCARQRSDYWDFDVWGSGTQVTVSSASTKGPSVFPLAPSSKSTSGGTAALGCLVKDYFPEPVTVSWNSGALTSGVHTFPAVLQSSGLYSLSSVVTVPSSSLGTQTYICNVNHKPSNTKVDKKVEPKSCDKTHTCPPCPAPELLAGPDVFLFPPKPKDTLMISRTPEVTCVVVDVSHEDPEVKFNWYVDGVEVHNAKTKPREEQYNSTYRVVSVLTVLHQDWLNGKEYKCKVSNKALPLPEEKTISKAKGQPREPQVYTLPPSREEMTKNQVSLTCLVKGFYPSDIAVEWESNGQPENNYKTTPPVLDSDGSFFLYSKLTVDKSRWQQGNVFSCSVLHEALHSHYTQKSLSLSPGK
light: DIQMTQSPSSLSASVGDTVTITCQANGYLNWYQQRRGKAPKLLIYDGSKLERGVPSRFSGRRWGQEYNLTINNLQPEDIATYFCQVYEFFGPGTRLDLKRTVAAPSVFIFPPSDEQLKSGTASVVCLLNNFYPREAKVQWKVDNALQSGNSQESVTEQDSKDSTYSLSSTLTLSKADYEKHKVYACEVTHQGLSSPVTKSFNRGEC
As to B2, the “ELISA (A450)” value with HIV gp120 Bal came out at 1.02 A450; with HIV gp120 CAAN, 0.9 A450.

B3: 1.1.23-1 (antibody, human IgG1, kappa)
heavy: QVQLLQSGAAVTKPGASVRVSCEASGYNIRDYFIHWWRQAPGQGLQWVGWINPKTGQPNNPRQFQGRVSLTRHASWDFDTFSFYMDLKALRSDDTAVYFCARQRSDYWDFDVWGSGTQVTVSSASTKGPSVFPLAPSSKSTSGGTAALGCLVKDYFPEPVTVSWNSGALTSGVHTFPAVLQSSGLYSLSSVVTVPSSSLGTQTYICNVNHKPSNTKVDKKVEPKSCDKTHTCPPCPAPELLAGPDVFLFPPKPKDTLMISRTPEVTCVVVDVSHEDPEVKFNWYVDGVEVHNAKTKPREEQYNSTYRVVSVLTVLHQDWLNGKEYKCKVSNKALPLPEEKTISKAKGQPREPQVYTLPPSREEMTKNQVSLTCLVKGFYPSDIAVEWESNGQPENNYKTTPPVLDSDGSFFLYSKLTVDKSRWQQGNVFSCSVLHEALHSHYTQKSLSLSPGK
light: DIQMTQSPSSLSASVGDTVTITCQANGYLNWYQQRRGKAPKLLIYDGSKLERGVPSRFSGRRWGQEYNLTINNLQPEDIATYFCQVYEFVTPGTNLDLKRTVAAPSVFIFPPSDEQLKSGTASVVCLLNNFYPREAKVQWKVDNALQSGNSQESVTEQDSKDSTYSLSSTLTLSKADYEKHKVYACEVTHQGLSSPVTKSFNRGEC
As for B3, the “ELISA (A450)” value in the experiment with HIV gp120 Bal was determined as 0.9 A450; in the experiment with HIV gp120 CAAN, 0.95 A450.

B4: 1.1.22-1 (antibody, human IgG1, kappa)
heavy: QVQLLQSGAAVTKPGASVRVSCEASGYNIRDYFIHWWRQAPGQGLQWVGWINPKTGQPNNPRQFQGRVSLTRHASWDFDTFSFYMDLKALRSDDTAVYFCARQRSDYWDFDVWGSGTQVTVSSASTKGPSVFPLAPSSKSTSGGTAALGCLVKDYFPEPVTVSWNSGALTSGVHTFPAVLQSSGLYSLSSVVTVPSSSLGTQTYICNVNHKPSNTKVDKKVEPKSCDKTHTCPPCPAPELLAGPDVFLFPPKPKDTLMISRTPEVTCVVVDVSHEDPEVKFNWYVDGVEVHNAKTKPREEQYNSTYRVVSVLTVLHQDWLNGKEYKCKVSNKALPLPEEKTISKAKGQPREPQVYTLPPSREEMTKNQVSLTCLVKGFYPSDIAVEWESNGQPENNYKTTPPVLDSDGSFFLYSKLTVDKSRWQQGNVFSCSVLHEALHSHYTQKSLSLSPGK
light: DIQMTQSPSSLSASVGDTVTITCQANGYLNWYQQRRGKAPKLLIYDGSKLERGVPSRFSGRRWGQEYNLTINNLQPEDIATYFCQVYEFVSPGTNLDLKRTVAAPSVFIFPPSDEQLKSGTASVVCLLNNFYPREAKVQWKVDNALQSGNSQESVTEQDSKDSTYSLSSTLTLSKADYEKHKVYACEVTHQGLSSPVTKSFNRGEC
Consider B4, for which the results for the “ELISA (A450)” value with HIV gp120 Bal and with HIV gp120 CAAN were 0.88 A450 and 1.02 A450, respectively.

B5: 1.1.18-1 (antibody, human IgG1, kappa)
heavy: QVQLLQSGAAVTKPGASVRVSCEASGYNIRDYFIHWWRQAPGQGLQWVGWINPKTGQPNNPRQFQGRVSLTRHASWDFDTFSFYMDLKALRSDDTAVYFCARQRSDYWDFDVWGSGTQVTVSSASTKGPSVFPLAPSSKSTSGGTAALGCLVKDYFPEPVTVSWNSGALTSGVHTFPAVLQSSGLYSLSSVVTVPSSSLGTQTYICNVNHKPSNTKVDKKVEPKSCDKTHTCPPCPAPELLAGPDVFLFPPKPKDTLMISRTPEVTCVVVDVSHEDPEVKFNWYVDGVEVHNAKTKPREEQYNSTYRVVSVLTVLHQDWLNGKEYKCKVSNKALPLPEEKTISKAKGQPREPQVYTLPPSREEMTKNQVSLTCLVKGFYPSDIAVEWESNGQPENNYKTTPPVLDSDGSFFLYSKLTVDKSRWQQGNVFSCSVLHEALHSHYTQKSLSLSPGK
light: DIQMTQSPSSLSASVGDTVTITCQANGYLNWYQQRRGKAPKLLIYDGSKLERGVPSRFSGRRWGQEYNLTINNLQPEDIATYFCQVYEFVSPGTRLDLKRTVAAPSVFIFPPSDEQLKSGTASVVCLLNNFYPREAKVQWKVDNALQSGNSQESVTEQDSKDSTYSLSSTLTLSKADYEKHKVYACEVTHQGLSSPVTKSFNRGEC
Take B5: the “ELISA (A450)” value in the experiment with HIV gp120 Bal and in the experiment with HIV gp120 CAAN was 0.92 A450 in each case.

B6: 1.1.20-1 (antibody, human IgG1, kappa)
heavy: QVQLLQSGAAVTKPGASVRVSCEASGYNIRDYFIHWWRQAPGQGLQWVGWINPKTGQPNNPRQFQGRVSLTRHASWDFDTFSFYMDLKALRSDDTAVYFCARQRSDYWDFDVWGSGTQVTVSSASTKGPSVFPLAPSSKSTSGGTAALGCLVKDYFPEPVTVSWNSGALTSGVHTFPAVLQSSGLYSLSSVVTVPSSSLGTQTYICNVNHKPSNTKVDKKVEPKSCDKTHTCPPCPAPELLAGPDVFLFPPKPKDTLMISRTPEVTCVVVDVSHEDPEVKFNWYVDGVEVHNAKTKPREEQYNSTYRVVSVLTVLHQDWLNGKEYKCKVSNKALPLPEEKTISKAKGQPREPQVYTLPPSREEMTKNQVSLTCLVKGFYPSDIAVEWESNGQPENNYKTTPPVLDSDGSFFLYSKLTVDKSRWQQGNVFSCSVLHEALHSHYTQKSLSLSPGK
light: DIQMTQSPSSLSASVGDTVTITCQANGYLNWYQQRRGKAPKLLIYDGSKLERGVPSRFSGRRWGQEYNLTINNLQPEDIATYFCQVYEFVVPGTNLDLKRTVAAPSVFIFPPSDEQLKSGTASVVCLLNNFYPREAKVQWKVDNALQSGNSQESVTEQDSKDSTYSLSSTLTLSKADYEKHKVYACEVTHQGLSSPVTKSFNRGEC
On to B6, for which the results for the “ELISA (A450)” value with HIV gp120 Bal and with HIV gp120 CAAN were 0.94 A450 and 0.95 A450, respectively.

B7: 1.1.21-1 (antibody, human IgG1, kappa)
heavy: QVQLLQSGAAVTKPGASVRVSCEASGYNIRDYFIHWWRQAPGQGLQWVGWINPKTGQPNNPRQFQGRVSLTRHASWDFDTFSFYMDLKALRSDDTAVYFCARQRSDYWDFDVWGSGTQVTVSSASTKGPSVFPLAPSSKSTSGGTAALGCLVKDYFPEPVTVSWNSGALTSGVHTFPAVLQSSGLYSLSSVVTVPSSSLGTQTYICNVNHKPSNTKVDKKVEPKSCDKTHTCPPCPAPELLAGPDVFLFPPKPKDTLMISRTPEVTCVVVDVSHEDPEVKFNWYVDGVEVHNAKTKPREEQYNSTYRVVSVLTVLHQDWLNGKEYKCKVSNKALPLPEEKTISKAKGQPREPQVYTLPPSREEMTKNQVSLTCLVKGFYPSDIAVEWESNGQPENNYKTTPPVLDSDGSFFLYSKLTVDKSRWQQGNVFSCSVLHEALHSHYTQKSLSLSPGK
light: DIQMTQSPSSLSASVGDTVTITCQANGYLNWYQQRRGKAPKLLIYDGSKLERGVPSRFSGRRWGQEYNLTINNLQPEDIATYFCQVYEFVGPGTNLDLKRTVAAPSVFIFPPSDEQLKSGTASVVCLLNNFYPREAKVQWKVDNALQSGNSQESVTEQDSKDSTYSLSSTLTLSKADYEKHKVYACEVTHQGLSSPVTKSFNRGEC
With B7, the “ELISA (A450)” value in the experiment with HIV gp120 Bal was 0.98 A450; with HIV gp120 CAAN it was 0.99 A450.

B8: 1.1.19-1 (antibody, human IgG1, kappa)
heavy: QVQLLQSGAAVTKPGASVRVSCEASGYNIRDYFIHWWRQAPGQGLQWVGWINPKTGQPNNPRQFQGRVSLTRHASWDFDTFSFYMDLKALRSDDTAVYFCARQRSDYWDFDVWGSGTQVTVSSASTKGPSVFPLAPSSKSTSGGTAALGCLVKDYFPEPVTVSWNSGALTSGVHTFPAVLQSSGLYSLSSVVTVPSSSLGTQTYICNVNHKPSNTKVDKKVEPKSCDKTHTCPPCPAPELLAGPDVFLFPPKPKDTLMISRTPEVTCVVVDVSHEDPEVKFNWYVDGVEVHNAKTKPREEQYNSTYRVVSVLTVLHQDWLNGKEYKCKVSNKALPLPEEKTISKAKGQPREPQVYTLPPSREEMTKNQVSLTCLVKGFYPSDIAVEWESNGQPENNYKTTPPVLDSDGSFFLYSKLTVDKSRWQQGNVFSCSVLHEALHSHYTQKSLSLSPGK
light: DIQMTQSPSSLSASVGDTVTITCQANGYLNWYQQRRGKAPKLLIYDGSKLERGVPSRFSGRRWGQEYNLTINNLQPEDIATYFCQVYEFVTPGTRLDLKRTVAAPSVFIFPPSDEQLKSGTASVVCLLNNFYPREAKVQWKVDNALQSGNSQESVTEQDSKDSTYSLSSTLTLSKADYEKHKVYACEVTHQGLSSPVTKSFNRGEC
Consider B8, for which the “ELISA (A450)” value is 1.03 A450 with HIV gp120 Bal and 1.05 A450 with HIV gp120 CAAN.
